Laboratory results from patent US20240287484.

Columns and labels:
Conditions in all cases: qPCR; 3 mM MgCl2, 37 C
[1] = tested on: T1, MG165-4 RT (uncultivated organism (metagenomic))
T1 sequence: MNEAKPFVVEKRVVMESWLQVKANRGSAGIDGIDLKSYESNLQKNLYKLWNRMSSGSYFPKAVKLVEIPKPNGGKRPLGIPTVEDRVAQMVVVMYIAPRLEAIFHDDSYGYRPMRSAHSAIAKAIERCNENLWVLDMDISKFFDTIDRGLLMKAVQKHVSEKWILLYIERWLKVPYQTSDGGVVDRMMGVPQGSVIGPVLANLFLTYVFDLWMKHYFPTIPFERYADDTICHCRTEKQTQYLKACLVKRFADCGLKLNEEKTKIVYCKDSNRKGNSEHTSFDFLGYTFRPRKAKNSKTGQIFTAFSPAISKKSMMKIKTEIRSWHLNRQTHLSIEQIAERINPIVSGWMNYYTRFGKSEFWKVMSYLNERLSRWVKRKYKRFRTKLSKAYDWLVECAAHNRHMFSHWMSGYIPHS

[2] = tested on: T2, MG165-6 RT (uncultivated organism (metagenomic))
T2 sequence: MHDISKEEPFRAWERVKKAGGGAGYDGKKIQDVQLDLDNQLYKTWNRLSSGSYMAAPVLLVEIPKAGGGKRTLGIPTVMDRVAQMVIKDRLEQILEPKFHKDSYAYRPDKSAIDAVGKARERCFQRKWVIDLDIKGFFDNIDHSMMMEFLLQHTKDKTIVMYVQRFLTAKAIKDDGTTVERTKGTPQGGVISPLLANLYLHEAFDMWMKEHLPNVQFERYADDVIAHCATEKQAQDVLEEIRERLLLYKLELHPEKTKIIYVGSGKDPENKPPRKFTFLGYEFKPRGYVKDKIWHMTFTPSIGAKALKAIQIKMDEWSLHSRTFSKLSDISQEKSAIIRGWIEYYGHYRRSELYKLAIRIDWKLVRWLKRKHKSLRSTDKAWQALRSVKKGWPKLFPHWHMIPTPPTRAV

[3] = tested on: T3, MG165-8 RT (uncultivated organism (metagenomic))
T3 sequence: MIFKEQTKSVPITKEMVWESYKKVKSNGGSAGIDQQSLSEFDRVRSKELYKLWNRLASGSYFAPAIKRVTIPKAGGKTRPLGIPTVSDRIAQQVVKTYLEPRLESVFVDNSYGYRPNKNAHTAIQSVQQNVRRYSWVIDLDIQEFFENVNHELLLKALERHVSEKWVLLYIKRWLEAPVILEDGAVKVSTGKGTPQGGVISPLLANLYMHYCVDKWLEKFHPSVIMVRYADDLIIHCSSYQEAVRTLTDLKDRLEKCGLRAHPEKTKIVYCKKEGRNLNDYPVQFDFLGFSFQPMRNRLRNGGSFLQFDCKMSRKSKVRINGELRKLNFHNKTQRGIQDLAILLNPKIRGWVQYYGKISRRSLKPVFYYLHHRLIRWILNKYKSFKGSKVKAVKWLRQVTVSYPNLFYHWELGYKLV

[4] = tested on: T4, MG167-3 RT (uncultivated organism (metagenomic))
T4 sequence: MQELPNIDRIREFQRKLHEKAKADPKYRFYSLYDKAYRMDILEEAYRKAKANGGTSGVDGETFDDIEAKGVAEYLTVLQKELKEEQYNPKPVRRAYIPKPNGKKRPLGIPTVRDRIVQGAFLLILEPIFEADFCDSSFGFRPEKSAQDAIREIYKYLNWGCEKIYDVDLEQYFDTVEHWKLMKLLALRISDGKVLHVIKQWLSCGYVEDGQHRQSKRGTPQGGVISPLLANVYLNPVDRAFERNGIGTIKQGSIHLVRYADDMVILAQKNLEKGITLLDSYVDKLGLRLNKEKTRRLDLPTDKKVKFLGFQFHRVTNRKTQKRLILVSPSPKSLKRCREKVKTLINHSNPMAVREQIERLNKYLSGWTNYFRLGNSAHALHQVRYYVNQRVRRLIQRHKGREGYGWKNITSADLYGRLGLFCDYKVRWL

[5] = tested on: MG167-5 RT (uncultivated organism (metagenomic))
Sequence of MG167-5 RT (uncultivated organism (metagenomic)) (chain, as listed by the source): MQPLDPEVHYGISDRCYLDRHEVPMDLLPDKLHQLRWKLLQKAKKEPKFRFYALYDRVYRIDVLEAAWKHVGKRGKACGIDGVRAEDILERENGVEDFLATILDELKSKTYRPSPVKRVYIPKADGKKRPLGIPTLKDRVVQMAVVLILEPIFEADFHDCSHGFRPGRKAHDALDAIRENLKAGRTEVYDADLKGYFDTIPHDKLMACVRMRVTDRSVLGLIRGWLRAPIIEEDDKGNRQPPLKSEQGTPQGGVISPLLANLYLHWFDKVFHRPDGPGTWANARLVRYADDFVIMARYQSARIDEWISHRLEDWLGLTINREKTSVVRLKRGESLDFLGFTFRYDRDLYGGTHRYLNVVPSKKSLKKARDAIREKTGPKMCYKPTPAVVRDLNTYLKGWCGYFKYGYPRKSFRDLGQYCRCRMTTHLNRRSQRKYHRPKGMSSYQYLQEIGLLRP

Measured: activity (fold over background)

200 nt RNA template annealed to DNA primer
> 10: all assays above
